Target: T1, GST-MdRFP1-His (apple (M. domestica), labeled with the Monolith NT Protein Labeling Kit RED)
T1 construct: MdRFP1, apple C3HC4-type RING finger protein 1, GenBank XP_017184215.2; Vector pGEX-6P-1; The results name GST-MdRFP1-His for the MST; the MST methods say only 'MdRFP1 was purified and labeled'; also called labeled MdRFP1; source: E. coli BL21 (DE3), purified (glutathione agarose and HisPur Ni-NTA resin are named for the set of recombinant proteins); not shown: GST, N-terminal, kept; His, …
T1 sequence (main, as listed by the source): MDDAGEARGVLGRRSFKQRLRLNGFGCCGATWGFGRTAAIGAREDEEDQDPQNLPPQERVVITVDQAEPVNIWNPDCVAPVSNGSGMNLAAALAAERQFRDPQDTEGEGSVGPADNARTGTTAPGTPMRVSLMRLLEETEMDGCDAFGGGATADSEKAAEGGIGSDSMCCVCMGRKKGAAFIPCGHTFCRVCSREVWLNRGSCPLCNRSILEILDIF
Assay: MST; labeled MdRFP1 (Monolith NT Protein Labeling Kit RED) incubated with a gradient dilution of MdRLKT21-KD for 30 min at RT; standard treated capillaries; Monolith NT.115
Details: both partners purified

B1: GST-MdRLKT21-KD (domain or fragment)
chain: RVRSRAKEGKTGKEKVVKEVAEVVVVEEGEGQNGKFVVLDEGFGLDLEDLLRASAYVVGKSRSGITYRVVAGSGGKGPGAAPSVVAVRRLSEGDATWRLKEFEAEVEAIGKVVHPNIVRLRAYYYASDEKLLVTDFIRNGSLYNALHGGPSNSLPPLPWTARLKIAQGTARGLMYIHEHSTRKYVHGNIKSTKILLNDDLQPYISGFGLARLMLGTSKFTTSASRRQNSNESIVASGLVVPTSSTIYLAPEARISRSKFTQKCDVYSFGIVLLEILTGRLPDEGLENGGKGLESLVRKTFRDERPLSEIIDPALLQEVYAKKQVVEAFHIALNCTELDPELRPRMKTVSESLDRLKLQC
A Kd of 14 ± 4.24 nM was found for B1 in this work.

From publication PMC12520543, “An Apple Susceptibility‐Related LRR Receptor‐Like Kinase MdRLKT21 Activates Plant Immunity by Hijacking a Trans‐Kingdom Fungal microRNA‐Like RNA” (Advanced Science, 2025)
